For test [1], the target named is rPro^ΔN10, recombinant human prothrombin missing amino acids … (human) (UniProt P00734).
The target in test [2] is rPro^ΔS5V, recombinant human prothrombin with region SVLQV deleted (human) (UniProt P00734).
Test [3] addresses rPro^Δ473-487, recombinant human prothrombin with region 473-487 deleted (human) (UniProt P00734).
Test [4] addresses rPro^ΔC10, recombinant human prothrombin missing amino acids … (human) (UniProt P00734).
In test [5] the target is rPro^ΔSLQ, recombinant human prothrombin with amino acids Ser^478/Leu^480/Gln^481 deleted (human) (UniProt P00734).

Consider “Human fXa (from UniProt P00742) (enzyme)”, for which the Rate of Pro molecules cleavage by membrane-bound fXa alone (nM consumed · s^-1 · fXa^-1) in test [1] was determined as 0.7; in test [2] it was 0.8; in test [3], 0.53; in test [4], 0.35.

With “prothrombinase (from UniProt P00742) (enzyme)”, the Rate of Pro molecules cleavage by prothrombinase (nM consumed · s^-1 · fXa^-1) in test [1] stood at 1.5; in test [2] it was 1.8; in test [3] it was 1. In addition, the Km of prothrombinase for rPro activation in test [5] came out at 3.2 µM. Besides, the kcat/Km of prothrombinase for rPro activation (IIa generation, chromogenic substrate) in test [5] was determined as 670000 M⁻¹ s⁻¹.

Source of the values: patent US20210155918A1.
